Positions count from the first letter of the chain named.
B1: Clone 8.83 (VNAR)
VNAR: ARVDQTPQTITKETGESLTINCVLRDSNCALPSTYWYRKKSGSTNEESISKGGRYVETVNSGSKSFSLRINDLTVEDSGTYRCKVIAQLSSIRAGCNYRKHDVYGDGTAVTVNA
notes: VNAR on phage; Clone 8 framework
B2: Clone 8.91 (VNAR)
VNAR: B1 VNAR with I92R, R93K, A94G
notes: as for B1
B3: Clone 8.102 (VNAR)
VNAR: B1 VNAR with R93L, A94R, N97A, Y98G, R99V
notes: as for B1
B4: Clone 8.99 (VNAR)
VNAR: B1 VNAR with I86L, A87F, Q88D, R93L, A94R
notes: as for B1
B5: Clone 8.85 (VNAR)
VNAR: B1 VNAR with S90R, S91K, I92K, R93L, A94R
notes: as for B1
B6: Clone 8.92 (VNAR)
VNAR: B1 VNAR with S90T, S91Q, I92W, R93L, A94R
notes: as for B1
B7: Clone 8.100 (VNAR)
VNAR: B1 VNAR with I86P, A87H, Q88M, R93L, A94R
notes: as for B1
B8: Clone 8.101 (VNAR)
VNAR: B1 VNAR with S90H, S91T, I92H, R93L, A94R
notes: as for B1
B9: Clone 8.89 (VNAR)
VNAR: B1 VNAR with R93L, A94F, N97D
notes: as for B1
B10: Clone 8.93 (VNAR)
VNAR: B1 VNAR with L89Q, R93L, A94R
notes: as for B1
B11: Clone 8.95 (VNAR)
VNAR: B1 VNAR with R93L, A94L, G95K, N97E
notes: as for B1
B12: Clone 8.96 (VNAR)
VNAR: B1 VNAR with I92M, R93Y, A94K
notes: as for B1
B13: Clone 8.98 (VNAR)
VNAR: B1 VNAR with I86L, A87E, Q88K, R93L, A94R
notes: as for B1
B14: Clone 8.86 (VNAR)
VNAR: B1 VNAR with R93L, A94V, G95N, N97F
notes: as for B1
B15: Clone 8.103 (VNAR)
VNAR: B1 VNAR with R93L, A94R, N97K, Y98Q, R99F, K100E, H101Y
notes: as for B1
B16: Clone 8.87 (VNAR)
VNAR: B1 VNAR with L89F, R93L, A94C, G95S, N97R
notes: as for B1
B17: Clone 8.90 (VNAR)
VNAR: B1 VNAR with R93L, A94R, R99L, K100Y, H101I
notes: as for B1
B18: Clone 8.84 (VNAR)
VNAR: B1 VNAR with Q88W, L89Q, R93L, A94R
notes: as for B1
B19: Clone 8.94 (VNAR)
VNAR: B1 VNAR with Q88D, L89V, S90G, R93L, A94R
notes: as for B1
B20: Clone 8.104 (VNAR)
VNAR: B1 VNAR with I92R, R93E, A94L
notes: VNAR on phage; Clone 8 framework; same CDR3 as 8.133
B21: Clone 8.88 (VNAR)
VNAR: B1 VNAR with R93L, A94F, N97A
notes: as for B1

How the values were obtained:
[1] = target: T1, recombinant mouse TfR-1 (mouse, UniProt Q62351 89-763); experiment: phage ELISA
T1 construct: Recombinant protein coated at 1 ug/ml in the phage ELISA; also called mTfR1; mouse transferrin receptor-1

[2] = target: T2, recombinant human TfR-1 (human, UniProt P02786 89-760); experiment: phage ELISA
T2 construct: Recombinant protein coated at 1 ug/ml in the phage ELISA; also called hTfR1; human transferrin receptor-1
T2 sequence (P02786 89-760 limits assumed): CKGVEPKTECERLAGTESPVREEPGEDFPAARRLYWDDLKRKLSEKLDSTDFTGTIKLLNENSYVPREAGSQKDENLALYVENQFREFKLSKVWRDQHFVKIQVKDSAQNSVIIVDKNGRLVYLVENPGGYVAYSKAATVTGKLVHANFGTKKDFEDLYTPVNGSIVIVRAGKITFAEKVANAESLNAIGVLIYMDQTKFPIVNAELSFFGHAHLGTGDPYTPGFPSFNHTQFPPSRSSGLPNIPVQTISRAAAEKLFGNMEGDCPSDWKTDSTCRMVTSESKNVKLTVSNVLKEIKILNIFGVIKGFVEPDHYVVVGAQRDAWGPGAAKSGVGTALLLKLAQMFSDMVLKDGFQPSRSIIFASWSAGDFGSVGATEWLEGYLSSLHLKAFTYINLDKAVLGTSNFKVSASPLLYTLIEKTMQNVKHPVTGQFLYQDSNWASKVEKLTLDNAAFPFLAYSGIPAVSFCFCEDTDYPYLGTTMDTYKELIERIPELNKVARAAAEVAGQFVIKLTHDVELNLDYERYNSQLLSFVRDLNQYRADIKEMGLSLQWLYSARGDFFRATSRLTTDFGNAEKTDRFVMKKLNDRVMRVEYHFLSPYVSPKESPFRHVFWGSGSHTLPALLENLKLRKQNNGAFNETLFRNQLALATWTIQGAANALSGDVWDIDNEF

T1 sequence (Q62351 89-763 limits assumed): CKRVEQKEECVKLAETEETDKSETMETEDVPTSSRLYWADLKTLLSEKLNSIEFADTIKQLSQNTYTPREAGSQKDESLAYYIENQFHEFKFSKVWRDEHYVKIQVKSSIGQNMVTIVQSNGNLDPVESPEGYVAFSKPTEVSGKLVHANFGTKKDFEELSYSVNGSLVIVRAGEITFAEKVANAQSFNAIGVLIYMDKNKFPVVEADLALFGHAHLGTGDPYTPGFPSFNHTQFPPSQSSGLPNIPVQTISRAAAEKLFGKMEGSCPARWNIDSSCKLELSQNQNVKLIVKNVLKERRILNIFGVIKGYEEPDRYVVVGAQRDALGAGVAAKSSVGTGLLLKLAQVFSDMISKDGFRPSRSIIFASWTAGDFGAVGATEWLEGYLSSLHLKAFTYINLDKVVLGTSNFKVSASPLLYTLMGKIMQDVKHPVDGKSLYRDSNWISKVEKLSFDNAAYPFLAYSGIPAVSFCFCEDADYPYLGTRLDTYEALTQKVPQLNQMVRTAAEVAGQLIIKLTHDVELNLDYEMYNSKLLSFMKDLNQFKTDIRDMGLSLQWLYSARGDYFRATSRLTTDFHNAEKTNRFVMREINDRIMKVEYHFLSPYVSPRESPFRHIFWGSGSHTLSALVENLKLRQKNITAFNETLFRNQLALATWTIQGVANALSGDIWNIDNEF

| Binder | A450 [1] | A450 [2] |
| --- | --- | --- |
| B1 | 0.057 A450 | 0.046 A450 |
| B2 | 0.055 A450 | 0.071 A450 |
| B3 | 0.052 A450 | 0.049 A450 |
| B4 | 0.053 A450 | 0.059 A450 |
| B5 | 0.056 A450 | 0.059 A450 |
| B6 | 0.055 A450 | 0.051 A450 |
| B7 | 0.053 A450 | 0.048 A450 |
| B8 | 0.052 A450 | 0.048 A450 |
| B9 | 0.055 A450 | 0.048 A450 |
| B10 | 0.055 A450 | 0.05 A450 |
| B11 | 0.054 A450 | 0.049 A450 |
| B12 | 0.054 A450 | 0.051 A450 |
| B13 | 0.053 A450 | 0.055 A450 |
| B14 | 0.056 A450 | 0.053 A450 |
| B15 | 0.052 A450 | 0.05 A450 |
| B16 | 0.055 A450 | 0.07 A450 |
| B17 | 0.055 A450 | 0.054 A450 |
| B18 | 0.057 A450 | 0.058 A450 |
| B19 | 0.054 A450 | 0.06 A450 |
| B20 | 0.052 A450 | 0.05 A450 |
| B21 | 0.055 A450 | 0.05 A450 |
